Assay: soluble on expression in E. coli; label from the status in PepcDB or PDB records

Row | Sequence | soluble on expression in E. coli
1 | MGSDKIHHHHHHMPALAHRRSDIASGTRTTALTDHRFRGRITSFTRQVPKLMNKQQGNTPVHIWRVDFEGMEMRTTSSDGIHVWIARDDVMEALQIPDPGYALSFVTPEDQAALSSGTDVPDEEDEPDGLPMINEIAVYEIMARFPTPPTGRFKPWLLRLRHLFFELMTRDDEATFLLQ | not soluble
2 | MGSDKIHHHHHHMPAVVVREYARLTTAPLPQNTLDAAHISPSAFSWLVKLGQQFKANGLQLLELDDQQWLRLDNYVGVLESPCGQVIEILPKHRVEGECINSARKLLRKLILNALQLKQRETEYTDIERFDAPLTEWLMAQFLTELDSVIKRGMRFDYQRIEESQRFLRGQLDVVKQLRQPAGREHIFNIRHDIFTADRAENRLLKTALLRVCKTTQDNDNWRLAHELQSLLHELPTSTDIQADFTTWRSDRLMAHYQAIKPWCEFVLSQHVPLAVQGLWQGISMLFPMERLFESYVAAELDAAVQRMLGVKGEVRTQLASKYLCKHQGKDFFQLQPDLQLKLGADHWILDTKWKLLDASDKENKYGLSQQDFYQLFAYGQTYLGGDGTLVLIYPAWHKFPAGTYLGEFRFNDKLTLKVLPFDLDAQNAAKDLISKLQQGVKQSLPS | not soluble
3 | MGSDKIHHHHHHMPECSKAWAVREEPELLTDRRHTDDGGEFVSQPRIIEPAIRTLIDTPLRVGESPTWDERTGDLWFVDILAPAIFCLSPSGKLQRFDMPAQIGCLGLCQSNLIVAALKTGVHLLNPQNGELELLCDPDEGRADSRLNDGKVGPDGHFWVGTRDEADVPTGNARLYRVSSSGHVERFIDGDMLTSNGLAWSPDETRMYHSDSSGLLLQVFDFDVQTGRLGPAKRLHDFQPDEGRPDGAATDSEGCYWSAGVQAGRLNRFTPDGELFEIYKMPFKGPTMPCFGGPELKTLYVTSLVTDTNGVATSGTLVAFDAPVAGAPIHKFPL | not soluble
4 | MGSDKIHHHHHHMPEEKQKKSVLEKALKRIEENFGKGSIMILGDETQVQPVEVIPTGSLAIDIATGVGGYPRGRIVEIFGQESSGKTTLALHAIAEAQKMGGVAAFIDAEHALDPVYAKNLGVDLKSLLISQPDHGEQALEIVDELVRSGVVDLIVVDSVAALVPRAEIEGAMGDMQVGLQARLMSQALRKIAGSVNKSKAVVIFTNQIRMKIGVMFGSPETTTGGLALKFYATMRMEVRRGEPIKEGKDVIGNVISVKIVKNKVAPPFKTAQTYIIYGKGIDREYELFNIAVNEGIVDRKGSWYYYTTLKGEEVSLGQGSSNAVQFLKDNPEIAGEIERRIREKYGLLSVEKEEQRKEKKSSGEEAS | not soluble
5 | MGSDKIHHHHHHMPELTEFQKKRLENIKRNNDLLKKLHLSGVASQIKHEAGVLEKSRAPAKKKQKTTNTRATKSASPTLPTRRSRRLRGESADDVKGIPNVNDNQLLKMGSPDGQDKNFIDAIKEKPVIGDVKLSDLIKDEDESALLEKFKRFNNGNFSSGDFFEEIKKRQGDVTGMDEFDLDLYDVFQPNEIKITYERISATYFHPAMEKKLIIAGDTSGTVGFWNVRDEPLADSEEDRMEEPDITRVKLFTKNVGRIDCFPADTSKILLTSYDGSIRSVHLNNLQSEEVLTLKNEYDDSLGISDCQFSYENPNVLFLTTLGGEFTTFDTRVKKSEYNLRRLADKKIGSMAINPMRPYEIATGSLDRTLKIWDTRNLVKKPEWSQYEDYPSHEIVSTYDSRLSVSAVSYSPTDGTLVCNGYDDTIRLFDVKSRDHLSAKLEPKLTIQHNCQTGRWTSILKARFKPNKNVFAIANMKRAIDIYNSEGQQLAHLPTATVPAVISWHPLRNWIAGGNSSGKIFLFTDDSGTIKQEE | not soluble
6 | MGSDKIHHHHHHMPENDFFAGIDAQLDTWEFRTLADAFKPRPPLQYAITGLFTLPSLTIVFGAPGTLKSMLLGSAALHVAGGLPWLGRKVKAFPTMWLDMDNGKRRTDERFEALARHLGLNEGTPFFYISMPTPMFNAGDTGDTEAMVNRMISRGIKLLFIDNLGLISPGADENSDAMVKVMGNLRLLAERTDAAVVIIHHQRKKSKQTQTARTGETLRGHSSIEASLDLALLVEREFDSDIITVHSTKTRDTEVRPFAAEWRYEHKPGTDELETAGFVSAEGENSSETVLEKAIIETVSSNALINQTKLKDDVMKLTGIGRNQVINMIRALEVRKALNVKPGSNNEKLYYIE | not soluble
7 | MGSDKIHHHHHHMPFDPKIRGPLDVRPLLQLMSAGSWQVELAHERDCHLVIWITRGQGRVLLDGQCRGFGPHTALCIPARTLFSLELGRQCIGQVLRIGEDIPCGLPETPMQIRINDMQEQGRINALFDAALREQQVADDHTAKAITSYADLVGIHLQRLWVRAPENRKPTAARRLCRAYCARLAQDAEGAFNMAGHASELGVTPTHLTRVCKQETGKTAAALLTERQLHAARSLLASTRLPMRDIAQSLGFGSAAYFTRFITQHTGSTPSDLRKKAHGAQLASGRNP | not soluble
8 | MGSDKIHHHHHHMPFDQGGIKMKPLLQTVDLKKYFPQGKRILKAVDGISIEIKEGETLGLVGESGCGKSTLGRTILKLLRPDGGKIFFEGKDITNLNDKEMKPYRKKMQIIFQDPLGSLNPQMTVGRIIEDPLIIHKIGTKKERRKRVEELLDMVGIGREFINSFPHEFSGGQQQRIGIARALALNPKFIVCDEPVSALDVSIQAQIIDLLEEIQQKMGISYLFIAHNLAVVEHISHKVAVMYLGKIVEYGDVDKIFLNPIHPYTRALLKSVPKIPWDGQKQRFYSLKGELPSPIDLPKGCRFQTRCTEKKAICFEKEPELTEVEKNHFVSCHLVRSYRG | not soluble
9 | MGSDKIHHHHHHMPGSHNITKQTGASKMSSTRGAFFPDALMQQVKARFHHVDHDLDGRARLFFDNAGGSFRLKAAVDAYARIDALPDCPERIHERALDLQAIQSRGEDDVRTILNAQGGTVYASLTASGAMFDMVRAIMENVPGTNAVTTVLEHPSSYDAMTYYAERTGKTLRIAPSNPETGGVDVDAIVSLIDADTALLSVMFASNISGAKFDIEAIVARARQKKPGLFIVVDAVQHAPHGIIDLQRTPVDGINFAPYKFFGCRGSGISWLSPRAAALPHHRLAAKESGVWELGSPAPAQFAVVTSIVDYVKWIGRYFVDSDDRRTLFVEGMHRIELHERALLAALLDGCGGRRGLRSIDGVEVYWDHDDLTKRDLIVGIGFAHLEPTQAVREYEKHGVIVYERVASSLYSGRMLKSFRLAGAVRISPLHCHAPDDIARFLAITGTLAANR | not soluble
10 | MGSDKIHHHHHHMPHSVPPLTDIGPLPTASTVRTVVFSDFDETYLAHSGTPEQVRSRQALENYLEDAGERHGLLFGWVTGSSLSSVLGKARRHGLRFLPHFIACSLGTELHVISEAGIQPEPGWQRRMLTTGEHLEGLAEEAFRELRTRGVPLVPQSCRAPGSRVISYYYFAQDPERDARQLALIRRTADRLSLGVNLSRCNPAAGDPDDCYDVDFLPRDCGKRHIVEYICRLYAVSEADAFAFGDSGNDLEMLTAVGRGLLVGNCTEEARARYPQVSARSHADAILSELRGVLP | not soluble
11 | MGSDKIHHHHHHMPILLLAQSDAHLSLGAAQGPGAELDRRACEQLDIPVLRRPLGGGVVWVDPGQLNYFFIFPAAAGVRRAPELFDRIAPWVLAVHAHFGLEVEVRGGQDFWCRGRKIGGTGAASIGHSLVLGGSFILEAQWTSFADCVAAPSAGFRAWLKEALEEDLGSWSRLLGRVVGPEVVLDACPALLHAAGWDVVVTRPTEAERRAMTQVELEDVDWEQPVRRRVRAGIKLKAGAFLTEQHWPDGHWLRVWTENGTFRRIAGSAWSAGQGDTLTGLQPGSERFDERLREMAGAGAALWGERLSETAVWAD | not soluble
12 | MGSDKIHHHHHHMPLLDIRNLTIELNTNNTKVKVLEKVSLTLNAGEIHGLVGESGSGRSLLAKAILGALGPQWTVIADRLMLDGKNLLDMSPKQRRCLMGSDIAMIFQDPSGSLDPVKTIGSQLIESMTPNKAVAFWRRGKDTYLNALKWLHKVGIKNPKSLMSCYPWELSEGECQKVMIAMAIANRPKLLIADEPTNSVELNAQAQIFRLLSQLNQLQNVSILLISHELETLVQWCDHLTVLYGGQVMESGPTDEMIAHPFHPYTKALLKNLPDYTGKMRHKSYLPTLQGSSPSLHNMPAGCRLGPRCPEAQRNCVKQPALEHQKDRYFACHFPYLNEQDTDDDAIA | not soluble
13 | MGSDKIHHHHHHMPNPTRAFLLGPLLKGVSRSFYLTLRVLPAGMRDPIGLAYLLARAADTIADTSLIAPQRRLTLLLSLREQVNGATDDAALFQRMAAEVAGQQVQSDEKVLLESLGPALDVLSQLNEFDRKAVREIVSTLTEGMEFDLRTFPDERSGQIAALREYDELDRYTYLVAGCVGEFWTTMTYAHMPGTLKERADVMARRGVRFGKALQMTNVLRDCGKDLRIGRCYLPQTMLDRYGLSPQDLLRPDNSVRARPLMIELLRKTVDHFREALDYTLAIPASAVRLRLASLWPILIGLETLILLADNDAWLDPQKVSKVRRNKVYQIIASSLLLVPSNGLVRHAVERRIRQIEARF | not soluble
14 | MGSDKIHHHHHHMPQISVTILRGADTIGGSCVKINHGEDSIVLDYGAPLMDSTGVSIDADLASSPSMENGILLDIQQQDTRPPLAYLLSHAHPDHYGLLRSLPKSSNIYLSDSSYSMMTIGNLFYPEALRFSSLEQCRQFTPGKPFQVGPFTVTAFLMDHSAFGACSLLIEVDGKQVYYTGDFRGHGRKSQVSDYIYANVKQPDLMLLEGTTLNGGHSLQFPTEVSVEDAMVSALNEGDGPAFVSASGSNIDRIVSLYNATKRTGKELVIDLYQLYLLEALKKYSPSLPPHKNDHLKVIFPQFQLAIIKSEFGDDFLRYSNRHVNLSKLKGTNYVFRLSPYAMTPYLDSFKEKGVKPKLIYSMWLGYQSKQPKFAEIANKYQESWQYIHTSGHAYLEHLQSFAGNISPKVLVPIHTLNRDKFSSYFDNVRIVENGESIVCE | not soluble
15 | MGSDKIHHHHHHMPRITQEISYNCDYGDNTFNLAIDIGGTLAKVVFSPIHSNRLMFYTIETEKIDKFMELLHSIIKEHNNGCYRMTHIIATGGGAFKFYDLLYENFPQIKGISRFEEMEGLIHGLDFFIHEIPDEVFTYNDQDGERIIPTSSGTMDSKAIYPYLLVNIGSGVSILKVTEPNNFSRVGGSSLGGGTLWGLLSLITGAQTYDQMLDWAQEGDNSSVDMLVGDIYGTDYNKIGLKSSAIASSFGKVFQNRMTSNKSLENNENKLYSSHESIEKNNGQMFKNPDICKSLLFAISNNIGQIAYLQAKINNIQNIYFGGSYTRGHLTTMNTLSYAINFWSQGSKQAFFLKHEGYLGAMGAFLSASRHSSTKKTST | not soluble
16 | MGSDKIHHHHHHMPRKTTSLCRRILLENYTTRGEKMITNLSDRVFVIGTGTSANSVLVCGKKFCVLFDSTLFPEKARKIKEFAAEILGKEIAVVFNTHYHPDHTFGNEVFDRIISHSLTRKSLEEMDEEYIRKIGVEVSLKFPDETFSERENYRFGDIVVEAVHLGGHTPDSSIFVLKNEKIVICGDLLTTGIHAEIVTDSDLFGWIEALSEIEKIRADYFVPGHGKVGTIEDVRNMKDYISKVLRFREGSVKHSELLEDPNFINREHPELLTWGLENIIR | not soluble
17 | MGSDKIHHHHHHMPVIKFSYGDSMSTPLDSDLLRTFLAVADTGNLTRAADTVRRTQSAVSMQIRKLEELIGSALFERHSRGVILTDDGRRLADNARRIVSLLDDTAAAMRSPALEGSVRIGISEEYVNSTLPKALGAFAAIHPGVEVTVRQETSMANSAALAAGELDIAVVFEPGGRSRNEVLMVNPTVWATCDQHGAHERRPVPIATYTYAEGGWCDELARRSLQSRGIESRIAYVSRTSGGLIAALISGLAIAPLSRTAIPAGCRELTEEDGFGIIDMTNVVLRTRRGNRSPTVDAMADAIRRAFRAPAEKEKEEVRSTTTDG | not soluble
18 | MGSDKIHHHHHHMPVKLAQALANPLFPALDSALRSGRHIGLDELDNHAFLMDFQEYLEEFYARYNVELIRAPEGFFYLRPRSTTLIPRSVLSELDMMVGKILCYLYLSPERLANEGIFTQQELYDELLTLADEAKLLKLVNNRSTGSDVDRQKLQEKVRSSLNRLRRLGMVWFMGHDSSKFRITESVFRFGADVRAGDDPREAQRRLIRDGEAMPIENHLQLNDETEENQPDSGEEE | not soluble

— the DeepSol protein solubility set
